In PMC4021819, “LIM homeodomain transcription factor Isl1 directs normal pyloric development by targeting Gata3”:

Legend:
[1] = biological target: T1, Isl1 C-terminal fragment (LIM domains removed) (UniProt P61372 134-349); experiment: competition; 100x unlabeled mutant vs site 1 probe; 40 mM KCl, 15 mM HEPES pH 7.9, 1 mM EDTA, 0.5 mM DTT, 5% glycerol, 50 ng/ul poly(dI-dC), 2 nM probe, 20 ul, room temperature 20 min; 6% native PAGE in 0.5x TBE; settings: protein: ivt; blunt
T1 sequence: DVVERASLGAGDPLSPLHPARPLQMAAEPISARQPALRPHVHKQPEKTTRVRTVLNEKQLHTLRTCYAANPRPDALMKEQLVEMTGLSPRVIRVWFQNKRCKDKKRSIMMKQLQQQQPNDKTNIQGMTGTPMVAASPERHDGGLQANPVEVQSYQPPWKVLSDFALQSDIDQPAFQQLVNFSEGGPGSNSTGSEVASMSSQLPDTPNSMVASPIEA

[2] = biological target: T1, Isl1 C-terminal fragment (LIM domains …); experiment: EMSA; self-competed by 100x unlabeled; blocked by Isl1 antibody 40.2D6; 40 mM KCl, 15 mM HEPES pH 7.9, 1 mM EDTA, 0.5 mM DTT, 5% glycerol, 50 ng/ul poly(dI-dC), 2 nM probe, 20 ul, room temperature 20 min; 6% native PAGE in 0.5x TBE; settings: protein: ivt; label: 5'-biotin (probe); blunt
[3] = biological target: T1, Isl1 C-terminal fragment (LIM domains …); experiment: competition; 100x unlabeled mutant vs site 3 probe; 40 mM KCl, 15 mM HEPES pH 7.9, 1 mM EDTA, 0.5 mM DTT, 5% glycerol, 50 ng/ul poly(dI-dC), 2 nM probe, 20 ul, room temperature 20 min; 6% native PAGE in 0.5x TBE; settings: protein: ivt; blunt

B1: Gata3-P1 number 1 mutant (dsDNA)
DNA 1: GTCCTCTTTCCCACGGCCCCACTGTCAGTC
DNA 2: GACTGACAGTGGGGCCGTGGGAAAGAGGAC
B1: no binding [1].

B2: Gata3-P1 number 3 wild type (dsDNA)
DNA 1: CCTGGAGGGGCCTATTAGATATTTTGTTTT
DNA 2: AAAACAAAATATCTAATAGGCCCCTCCAGG
B2: binds [2].

B3: Gata3-P1 number 3 mutant (dsDNA)
DNA 1: CCTGGAGGGGCCTCGGCGATATTTTGTTTT
DNA 2: AAAACAAAATATCGCCGAGGCCCCTCCAGG
B3: no binding [3].

B4: Gata3-P1 number 1 wild type (dsDNA)
DNA 1: GTCCTCTTTCCCAATTACCCACTGTCAGTC
DNA 2: GACTGACAGTGGGTAATTGGGAAAGAGGAC
B4: binds [2].
